Literature values as cited in publication PMC4209448 (Scientific Reports, 2014).

Details: C57BL/6 mice

Aβ(1–40): amyloid-β(1–40) peptide whose CSF-to-blood efflux half-time is quoted from the literature
Half-time of efflux from the CSF to blood: 34.63 ± 3.6 min
